Data taken from patent publication US20040116355A1 (CYTOVIA, published 2004).
* marks the point of attachment. Ethoxycarbonyl = CCOC(=O)*; CH2F = FC*

T1: rCaspase 3 (purchased from PharMingen) (UniProt P42574 29-277, limits assumed)
T1 sequence (looked up): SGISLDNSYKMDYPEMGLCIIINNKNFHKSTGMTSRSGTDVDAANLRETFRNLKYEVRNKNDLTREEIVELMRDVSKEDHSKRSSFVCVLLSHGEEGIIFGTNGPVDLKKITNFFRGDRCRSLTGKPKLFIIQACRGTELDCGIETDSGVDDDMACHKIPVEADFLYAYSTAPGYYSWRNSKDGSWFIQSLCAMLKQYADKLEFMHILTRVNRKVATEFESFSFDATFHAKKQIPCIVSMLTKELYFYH


Target: T1, rCaspase 3 (purchased from PharMingen)
Assay: cell-based or functional assay

Caspase-3 IC50 (fluorometric enzyme assay, cleavage of 10 uM Ac-DEVD-AMC by 2 ng rCaspase 3) | Binder
72 nM | cyclohexylmethoxycarbonyl-Val-Asp-CH2F [Cyclohexylmethoxycarbonyl-Val-Asp-fmk]
58 nM | Ethoxycarbonyl-Val-Asp-CH2F (SMILES CCOC(=O)N[C@H](C(=O)N[C@@H](CC(=O)O)C(=O)CF)C(C)C) [Ethoxycarbonyl-Val-Asp-fmk]
